The assay concerns the target monomeric recombinant human ASC (Apoptosis-associated speck-like protein containing a caspase recruitment … (human, UniProt Q9ULZ3 1-195)). Description: limited proteolysis-coupled mass spectrometry.

Chain of monomeric recombinant human ASC (Apoptosis-associated speck-like protein containing a caspase recruitment … (Q9ULZ3 whole entry): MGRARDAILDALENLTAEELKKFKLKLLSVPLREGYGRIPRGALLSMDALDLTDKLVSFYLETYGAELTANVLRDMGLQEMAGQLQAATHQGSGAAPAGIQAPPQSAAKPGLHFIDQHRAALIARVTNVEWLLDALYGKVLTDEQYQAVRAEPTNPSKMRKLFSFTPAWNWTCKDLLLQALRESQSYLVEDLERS

B1: monomeric recombinant human SAA1 (serum amyloid A1) (natural protein, UniProt P0DJI8 19-122, looked up)
chain: RSFFSFLGEAFDGARDMWRAYSDMREANYIGSDKYFHARGNYDAAKRGPGGAWAAEVITDARENIQRFFGHGAEDSLADQAANEWGRSGKDPNHFRPAGLPEKY
On to B1, for which the binding result is on record as “binds”.

(Values after article doi:10.1101/2021.05.01.442282 (bioRxiv, 2021).)
